{
  "source": "paper PMC9122207",
  "about": "“PTEN differentially regulates endocytosis, migration, and proliferation in the enteric protozoan parasite Entamoeba histolytica” (PLoS Pathogens, 2022)",
  "assay_in_all_cases": "malachite green phosphate release, Lineweaver-Burk",
  "assay_type_in_all_cases": "biochemical, Entamoeba histolytica",
  "details_in_all_cases": "100 mM MOPS pH 6.0, 37°C, 40 min, di-C8 lipid",
  "key": {"[1]": {"test_system": "CCCCCCCC(=O)OC[C@H](COP(=O)(O)O[C@H]1[C@H](O)[C@@H](OP(=O)(O)O)[C@H](OP(=O)(O)O)[C@@H](OP(=O)(O)O)[C@H]1O)OC(=O)CCCCCCC", "source_text": "(§1) malachite green phosphate release, Lineweaver-Burk on EhPTEN1"}, "[2]": {"test_system": "CCCCCCCC(=O)OC[C@H](COP(=O)(O)O[C@@H]1[C@H](O)[C@H](OP(=O)(O)O)[C@@H](O)[C@H](OP(=O)(O)O)[C@H]1O)OC(=O)CCCCCCC", "source_text": "as §1"}, "[3]": {"test_system": "CCCCCCCC(=O)OC[C@H](COP(=O)(O)O[C@H]1[C@H](O)[C@@H](O)[C@H](OP(=O)(O)O)[C@@H](OP(=O)(O)O)[C@H]1O)OC(=O)CCCCCCC", "source_text": "as §1"}},
  "data": [
    {"substance": "EhPTEN1 (Entamoeba histolytica HM-1:IMSS)", "values": [
      {"measurement": "Km", "setting": "[1]", "result": "92.5 ± 4.72", "unit": "µM"},
      {"measurement": "Vmax", "setting": "[1]", "result": 0.0169, "unit": "µmol/min/mg"},
      {"measurement": "kcat", "setting": "[1]", "result": "0.00517 ± 0.0005", "unit": "s⁻¹"},
      {"measurement": "Km", "setting": "[2]", "result": "161 ± 20.1", "unit": "µM"},
      {"measurement": "Vmax", "setting": "[2]", "result": 0.0084, "unit": "µmol/min/mg"},
      {"measurement": "kcat", "setting": "[2]", "result": "0.0025 ± 0.000167", "unit": "s⁻¹"},
      {"measurement": "Km", "setting": "[3]", "result": "292 ± 18.8", "unit": "µM"},
      {"measurement": "Vmax", "setting": "[3]", "result": 0.00602, "unit": "µmol/min/mg"},
      {"measurement": "kcat", "setting": "[3]", "result": "0.00183 ± 0.000333", "unit": "s⁻¹"}
    ]}
  ]
}
